Measurements published in the supplement of paper PMC9112550, “Optimization of the antimicrobial peptide Bac7 by deep mutational scanning” (BMC Biology, 2022).

Each sequence was assayed on Escherichia coli TOP10 (assay: shrunken log2 fold change of peptide-encoding DNA abundance (4.5 h post-induction vs induction); higher = less antimicrobial activity (less host growth inhibition)). Conditions: time post-induction: 4.5 h; library: site-saturation at positions 5, 18, 19, 20.
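Also: peptides expressed intracellularly from a pBAD plasmid library in pooled LB shake-flask culture, induced with 0.3% L-arabinose, DNA abundance read by NGS, three biological replicates, DESeq2 with apeglm shrinkage.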

Q: RRIRPRPPRLPRPRPRPMARPRP was tested. Which “shrunken log2 fold change” value did it give?
A: Its value is 0.154.

Q: With RRIRIRPPRLPRPRPRPQAPPRP as the sequence, how does the “shrunken log2 fold change” value read?
A: The value was -0.331.

Q: Which “shrunken log2 fold change” value does the source give for RRIRMRPPRLPRPRPRPCSLPRP here?
A: Its value is -0.0103.

Q: Which “shrunken log2 fold change” value does the source give for RRIRLRPPRLPRPRPRPIYVPRP here?
A: The value was -0.0939.

Q: With RRIRPRPPRLPRPRPRPADYPRP as the sequence, how does the “shrunken log2 fold change” value read?
A: The value was 0.0631.

Q: With RRIRHRPPRLPRPRPRPPLPPRP as the sequence, how does the “shrunken log2 fold change” value read?
A: Its value is 0.476.

Q: RRIRQRPPRLPRPRPRPEFEPRP was tested. Which “shrunken log2 fold change” value did it give?
A: Its value is -0.0193.

Q: How did the “shrunken log2 fold change” value turn out when RRIRSRPPRLPRPRPRPKFDPRP was run?
A: Its value is -0.081.

Q: How did the “shrunken log2 fold change” value turn out when RRIRKRPPRLPRPRPRPCIGPRP was run?
A: Its value is 0.0382.

Q: For RRIRKRPPRLPRPRPRPYISPRP, which “shrunken log2 fold change” value is on record?
A: The value was -0.0238.

Q: With RRIRHRPPRLPRPRPRPAECPRP as the sequence, how does the “shrunken log2 fold change” value read?
A: Its value is -0.696.

Q: Which “shrunken log2 fold change” value does the source give for RRIRGRPPRLPRPRPRPPRIPRP here?
A: Its value is 0.719.

Q: RRIRCRPPRLPRPRPRPHFHPRP was tested. Which “shrunken log2 fold change” value did it give?
A: The value was -0.712.

Q: With RRIRIRPPRLPRPRPRPIMTPRP as the sequence, how does the “shrunken log2 fold change” value read?
A: The value was -0.26.

Q: RRIRRRPPRLPRPRPRPYAMPRP was tested. Which “shrunken log2 fold change” value did it give?
A: The value was -0.121.

Q: How did the “shrunken log2 fold change” value turn out when RRIRQRPPRLPRPRPRPNYIPRP was run?
A: The value was -0.445.

Q: For RRIRQRPPRLPRPRPRPVCAPRP, which “shrunken log2 fold change” value is on record?
A: Its value is 0.118.

Q: RRIRKRPPRLPRPRPRPYYAPRP was tested. Which “shrunken log2 fold change” value did it give?
A: Its value is -0.0013.

Q: With RRIRKRPPRLPRPRPRPMNAPRP as the sequence, how does the “shrunken log2 fold change” value read?
A: The value was 0.228.

Q: For RRIRNRPPRLPRPRPRPQEFPRP, which “shrunken log2 fold change” value is on record?
A: Its value is -0.0043.

Q: For RRIRPRPPRLPRPRPRPQCIPRP, which “shrunken log2 fold change” value is on record?
A: Its value is -0.182.

Q: With RRIRTRPPRLPRPRPRPSIGPRP as the sequence, how does the “shrunken log2 fold change” value read?
A: Its value is -0.272.

Q: How did the “shrunken log2 fold change” value turn out when RRIRGRPPRLPRPRPRPVEDPRP was run?
A: Its value is 0.0393.

Q: How did the “shrunken log2 fold change” value turn out when RRIRTRPPRLPRPRPRPHTAPRP was run?
A: Its value is -0.0446.

Q: Which “shrunken log2 fold change” value does the source give for RRIRNRPPRLPRPRPRPSPFPRP here?
A: The value was -0.287.

Q: For RRIRARPPRLPRPRPRPNDPPRP, which “shrunken log2 fold change” value is on record?
A: The value was 0.104.

Q: With RRIRTRPPRLPRPRPRPRTSPRP as the sequence, how does the “shrunken log2 fold change” value read?
A: The value was 0.098.

Q: How did the “shrunken log2 fold change” value turn out when RRIRLRPPRLPRPRPRPAIRPRP was run?
A: Its value is -0.111.

Q: Which “shrunken log2 fold change” value does the source give for RRIRWRPPRLPRPRPRPQNLPRP here?
A: The value was -0.103.

Q: Which “shrunken log2 fold change” value does the source give for RRIRYRPPRLPRPRPRPSWPPRP here?
A: The value was -0.613.

Q: For RRIRMRPPRLPRPRPRPSWRPRP, which “shrunken log2 fold change” value is on record?
A: Its value is 0.194.

Q: RRIRHRPPRLPRPRPRPVNCPRP was tested. Which “shrunken log2 fold change” value did it give?
A: Its value is 0.00367.

Q: For RRIRQRPPRLPRPRPRPYFQPRP, which “shrunken log2 fold change” value is on record?
A: The value was -0.428.

Q: How did the “shrunken log2 fold change” value turn out when RRIRNRPPRLPRPRPRPIYCPRP was run?
A: Its value is -0.858.

Q: With RRIRLRPPRLPRPRPRPMRYPRP as the sequence, how does the “shrunken log2 fold change” value read?
A: Its value is 0.0322.

Q: Which “shrunken log2 fold change” value does the source give for RRIRLRPPRLPRPRPRPVNIPRP here?
A: The value was -0.163.

Q: For RRIRGRPPRLPRPRPRPGARPRP, which “shrunken log2 fold change” value is on record?
A: The value was 0.953.

Q: RRIRKRPPRLPRPRPRPYMKPRP was tested. Which “shrunken log2 fold change” value did it give?
A: The value was -0.134.

Q: RRIRPRPPRLPRPRPRPEGHPRP was tested. Which “shrunken log2 fold change” value did it give?
A: The value was -0.16.

Q: For RRIRNRPPRLPRPRPRPFQFPRP, which “shrunken log2 fold change” value is on record?
A: The value was -0.0984.

Q: For RRIRERPPRLPRPRPRPSYDPRP, which “shrunken log2 fold change” value is on record?
A: The value was -0.301.

Q: RRIRFRPPRLPRPRPRPLEGPRP was tested. Which “shrunken log2 fold change” value did it give?
A: Its value is 0.0031.

Q: For RRIRIRPPRLPRPRPRPGYPPRP, which “shrunken log2 fold change” value is on record?
A: The value was -0.173.

Q: Which “shrunken log2 fold change” value does the source give for RRIRMRPPRLPRPRPRPNFNPRP here?
A: The value was -0.23.

Q: For RRIRQRPPRLPRPRPRPEERPRP, which “shrunken log2 fold change” value is on record?
A: Its value is 0.104.

Q: For RRIRQRPPRLPRPRPRPIEFPRP, which “shrunken log2 fold change” value is on record?
A: Its value is -1.79.

Q: With RRIRYRPPRLPRPRPRPRIFPRP as the sequence, how does the “shrunken log2 fold change” value read?
A: The value was -0.603.

Q: For RRIRYRPPRLPRPRPRPDKRPRP, which “shrunken log2 fold change” value is on record?
A: The value was -0.168.

Q: With RRIRPRPPRLPRPRPRPHVDPRP as the sequence, how does the “shrunken log2 fold change” value read?
A: The value was -0.029.

Q: How did the “shrunken log2 fold change” value turn out when RRIRLRPPRLPRPRPRPCNWPRP was run?
A: The value was 0.0532.
